Measurements taken from patent publication CN116836273A (DONGGUAN PENGZHI BIOTECHNOLOGY CO LTD, dated 2023).
Where a chain is given by its changes, count along the chain named. One block for each binder: values may come before it.

Assays:
[1] = molecular target: T1, 血清淀粉样蛋白A (Serum amyloid A, SAA) (UniProt P0DJI8 19-122, limits assumed); experiment: indirect ELISA, SAA coated at 2 ug/ml, antibody at 7.5 ng/ml
T1 construct: Bought antigen
T1 sequence (looked up): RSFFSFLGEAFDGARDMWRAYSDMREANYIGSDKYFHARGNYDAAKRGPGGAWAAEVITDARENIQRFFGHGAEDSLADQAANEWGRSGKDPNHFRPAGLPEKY

[2] = molecular target: T1, 血清淀粉样蛋白A (Serum amyloid A, SAA); experiment: indirect ELISA, SAA coated at 2 ug/ml, antibody at 15 ng/ml
[3] = molecular target: T1, 血清淀粉样蛋白A (Serum amyloid A, SAA); experiment: indirect ELISA, SAA coated at 2 ug/ml, antibody at 30 ng/ml
[4] = molecular target: T1, 血清淀粉样蛋白A (Serum amyloid A, SAA); experiment: indirect ELISA, SAA coated at 2 ug/ml, antibody at 3.75 ng/ml
[5] = molecular target: T1, 血清淀粉样蛋白A (Serum amyloid A, SAA); experiment: indirect ELISA, SAA coated at 2 ug/ml, antibody at 0 ng/ml (blank)
[6] = molecular target: T1, 血清淀粉样蛋白A (Serum amyloid A, SAA); experiment: BLI, antibody captured on AMC sensor, SAA in solution
[7] = molecular target: T1, 血清淀粉样蛋白A (Serum amyloid A, SAA); experiment: indirect ELISA, SAA coated at 2 ug/ml, antibody at 60 ng/ml

OD [1]: 0.767 OD450 (ref. 630 nm)
OD [2]: 1.23 OD450 (ref. 630 nm)
OD [3]: 1.95 OD450 (ref. 630 nm)
OD [4]: 0.474 OD450 (ref. 630 nm)
OD [5]: 0.011 OD450 (ref. 630 nm)
Kd [6]: 0.906 nM
koff [6]: 6.67e-05 s⁻¹
kon [6]: 73600 M⁻¹ s⁻¹
OD [7]: 2.26 OD450 (ref. 630 nm)
B1: Anti-SAA 9G5mut1 (antibody, mouse IgG2a, kappa)
heavy: EVHLQQSGAELVTPGASVKLSCTASGFNIKDTYMHWVKQRPEQGLEWIGRIDPANGNTKYDPKFQGKATMTADTSSNTAYLQLSSLTSEDTAVYYCARGGNYDWGQGTTLSVSSAKTTAPSVYPLAPVCGDTTGSSVTLGCLVKGYFPEPVTLTWNSGSLSSGVHTFPAVLQSDLYTLSSSVTVTSSTWPSQSITCNVAHPASSTKVDKKIEPRGPTIKPCPPCKCPAPNLLGGPSVFIFPPKIKDVLMISLSPIVTCVVVDVSEDDPDVQISWFVNNVEVHTAQTQTHREDYNSTLRVVSALPIQHQDWMSGKEFKCKVNNKDLPAPIERTISKPKGSVRAPQVYVLPPPEEEMTKKQVTLTCMVTDFMPEDIYVEWTNNGKTELNYKNTEPVLDSDGSYFMYSKLRVEKKNWVERNSYSCSVVHEGLHNHHTTKSFSRTPGK
light: DIVLTQSPASLAVSLGQRATISCKASQSVDYDGYSYLNWYQQKPGQPPKLLISAASNLESGIPARFSGSGSGTDFTLNIHPVEEEDAATYYCQQSNEDPYTFGGGTKLQIKRADAAPTVSIFPPSSEQLTSGGASVVCFLNNFYPKDINVKWKIDGSERQNGVLNSWTDQDSKDSTYSMSSTLTLTKDEYERHNSYTCEATHKTSTSPIVKSFNRNEC
notes: Recombinant monoclonal antibody made in CHO cells, a mutant of Anti-SAA 9G5

OD [1]: 0.801 OD450 (ref. 630 nm)
OD [2]: 1.3 OD450 (ref. 630 nm)
OD [3]: 2.01 OD450 (ref. 630 nm)
OD [4]: 0.501 OD450 (ref. 630 nm)
OD [5]: 0.011 OD450 (ref. 630 nm)
Kd [6]: 0.875 nM
koff [6]: 6.52e-05 s⁻¹
kon [6]: 74500 M⁻¹ s⁻¹
OD [7]: 2.31 OD450 (ref. 630 nm)
B2: Anti-SAA 9G5mut2 (antibody, mouse IgG2a, kappa)
heavy: B1 heavy
light: B1 light with I21L
notes: as for B1

OD [1]: 0.635 OD450 (ref. 630 nm)
OD [2]: 1.13 OD450 (ref. 630 nm)
OD [3]: 1.51 OD450 (ref. 630 nm)
OD [4]: 0.386 OD450 (ref. 630 nm)
OD [5]: 0.007 OD450 (ref. 630 nm)
Kd [6]: 0.897 nM
koff [6]: 6.75e-05 s⁻¹
kon [6]: 75200 M⁻¹ s⁻¹
OD [7]: 2.21 OD450 (ref. 630 nm)
B3: Anti-SAA 4B3mut1 (antibody, mouse IgG1, kappa, V domains shown)
VH: QVQLQQSGAELVKPGASVKLSCKTSGYTFTNKYIYWLKQRPGQGLEWIGEIDPSNGATKFNEKFTNKATLTVDRSSTTAYVELSSLTSEDSAVYYCARGAYWGHGTLVTVSA
VL: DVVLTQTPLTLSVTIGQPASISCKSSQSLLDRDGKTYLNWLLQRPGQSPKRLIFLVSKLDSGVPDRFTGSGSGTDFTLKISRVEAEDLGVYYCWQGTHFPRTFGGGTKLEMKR
notes: Recombinant monoclonal antibody made in CHO cells, a mutant of Anti-SAA 4B3
